Consider 1 substance from patent publication US20100047163A1.

The target in experiment [1] is LDL receptor (LDLR) on human glioblastoma multiforme cells (human) (UniProt P01130). Briefly: ^125I-LDL saturation binding to SF-767 cells.
Experiment [2] shares this target. Briefly: ^125I-LDL saturation binding to A-172 cells.
Experiment [3] shares this target. Nature of the experiment: ^125I-LDL saturation binding to U-251 MG cells (average of 2 experiments).
Experiment [4] shares this target. Briefly: ^125I-LDL saturation binding to SF-539 cells.
Experiment [5] has the same target. Briefly: ^125I-LDL saturation binding to U-343 MG cells.
Experiment [6] has the same target. Briefly: ^125I-LDL saturation binding to SF-763 cells.

In the case of “native plasma LDL (low density lipoprotein; LDLR ligand apoB100 on its surface), P04114 28-4563”, the Bmax (ng/mg cell protein) in experiment [1] was 793; in experiment [2], 1400; in experiment [3] it was 225; in experiment [4], 310; in experiment [5], 510; in experiment [6] it was 900.
